The results in this text go back to patent publication US20040229366A1 (University of California, published 2004).

In experiment [1] the target is T1, bait vector (empty pBI-880, GAL4 (1-147) alone) (UniProt P04386 1-147).
T1 construct: range 1-147; Negative control: bait vector without insert; also called empty bait
In words: yeast two-hybrid, K-box prey with empty bait. From the text: Previous studies have shown that the MADS-domain and I regions may be important for homodimer formation by AG and by AP1 (Krizek and Meyerowitz, 1996; Mizukami et al., 1996; Riechmann et al., 1996) and that the I region and K-domain are needed for the formation of AP3/PI heterodimers (Krizek and Meyerowitz, Proc. Natl. Acad. Sci. USA 93, 4063-4070 (1996); Riechmann et al., Proc. Natl. Acad. Sci. USA 93, 4793-4798 (1996)). In addition, the K-domain of AG is sufficient to promote interactions with SEP1, SEP2, SEP3 and AGL6 in yeast (Fan et al., Plant J. 11, 999-1010 (1997)). Since many of the CAL- and AP1-interacting clones isolated as part of our study lacked the MADS-domain and I regions, we tested if the K-domain itself was sufficient to promote the observed interactions. First, we subcloned the K-box regions of SEP3, SOC1, SVP and AGL24 into the prey vector, and tested their ability to activate the reporter using either the empty bait or the cruciferin gene cloned into the bait plasmid. […] However, other protein domains appear to enhance these interactions since the level of reporter gene activation is higher when larger constructs are used.

The target of experiment [2] is T1, bait vector (empty pBI-880, GAL4 …). Put plainly: yeast two-hybrid retest, B-Gal and HIS prototrophy. An excerpt:
To confirm the specificity of the observed interactions, the longest and shortest clone of each class was transformed back into a yeast strain that contained either the CAL bait, the bait vector, or an inert control bait, cruciferin. The strains containing the CAL bait tested positive for both B-Gal activity and HIS prototrophy. The strains containing the bait vector or the cruciferin bait were negative in both assays, as they were not able to grow on plates lacking histidine and the yeast colonies were completely white in the B-Gal assay.

Experiment [3] addresses T2, CAL bait (GAL4 (1-147) fused to the intact CAL coding region in pBI-880) (Arabidopsis thaliana).
T2 construct: range 1-147; also called CAULIFLOWER; full-length CAL cDNA as bait
In words: yeast two-hybrid with CAL bait. An excerpt: To confirm the specificity of these interactions, the longest clone of each class was transformed back into yeast with the AP1 bait, the bait vector, and an inert control bait, cruciferin. The strains containing the AP1 bait tested positive for both β-Gal activity and HIS prototrophy. The strains containing the bait vector or the cruciferin bait were negative in both assays. We then tested if the three new AP1-interacting clones could also interact with CAL, since they had not been isolated in the CAL library screen. However, AGL27, the RNA binding protein, and the novel protein were unable to interact with CAL in yeast.

B1: SEP3K (K-box region of SEP3 in prey vector pBI771) (other)
chain: SQQEYLKLKERYDALQRTQRNLLGEDLGPLSTKELESLERQLDSSLKQIRALRTQFMLDQLNDLQSK
notes: also called SEP3 K-box; K-box prey construct; not shown: fusion partner encoded by prey vector pBI771
For the molecule B1, the binding result in experiment [1] is “no binding”.

B2: SOC1K (K-box region of SOC1 in prey vector pBI771) (other, not shown: small tags and cut ends)
chain: MKYEAANMMKKIEQLEASKRKLLGEGIGTCSIEELQQIEQQLEKSVKCIRARKTQVFKEQIEQLKQKE
notes: also called SOC1 K-box; K-box prey construct
On to B2, for which the binding result in experiment [1] is given as “no binding”.

B3: shortest AGL24 clone from the CAL two-hybrid screen (other)
chain: EVEDKTKQLRKLRGEDLDGLNLEELQRLEKLLESGLSRVSEKKGECVMSQIFSLEKRGSELVDENKRLRDKLETLERAKLTTLKEALETESVTTNVSSYDSGTPLEDDSDTSLKLGLPSWE
notes: Lacks the MADS domain and I region; also called shortest clone of each class; shortest clones isolated in the screen; not shown: fusion partner encoded by prey vector pBI771
Regarding B3, the binding result in experiment [2] was “no binding”.

B4: AGL27 clone isolated in the AP1 two-hybrid screen (one clone) (other)
chain: MGRRKIEIKRIENKSSRQVTFSKRRNGLIDKARQLSILCESSVAVVVVSASGKLYDSSSGDDISKIIDRYEIQHADELRALDLEEKIQNYLPHKELLETVQSKLEEPNVDNVSVDSLISLEEQLETALSVSRARKAELMMEYIESLKEKEKLLREENQVLASQLSEKKGMSHR
notes: also called new MADS box gene designated AGL27; not shown: fusion partner encoded by prey vector pBI771
Turning to B4, in experiment [3], the binding result is “no binding”.

B5: AGL24K (K-box region of AGL24 in prey vector pBI771) (other, not shown: small tags and cut ends)
chain: MLENCNLSRLSKEVEDKTKQLRKLRGEDLDGLNLEELQRLEKLLESGLSRVSEKKGECVMSQIFSLE
notes: also called AGL24 K-box; K-box prey construct
For B5, in experiment [1], the binding result is “no binding”.

B6: SVPK (K-box region of SVP in prey vector pBI771) (other, not shown: small tags and cut ends)
chain: MSDHARMSKEIADKSHRLRQMRGEELQGLDIEELQQLEKALETGLTRVIETKSDKIMSEISELQKKG
notes: also called SVP K-box; K-box prey construct
Take B6: in experiment [1], the binding result is on record as “no binding”.
